Data published in patent US20080219974A1.

Target: human V158 FcγRIIIa (human) (UniProt P08637)
Assay: not described in this filing

human V158 FcγRIIIa (human), sequence (P08637 17-208 F176V limits assumed): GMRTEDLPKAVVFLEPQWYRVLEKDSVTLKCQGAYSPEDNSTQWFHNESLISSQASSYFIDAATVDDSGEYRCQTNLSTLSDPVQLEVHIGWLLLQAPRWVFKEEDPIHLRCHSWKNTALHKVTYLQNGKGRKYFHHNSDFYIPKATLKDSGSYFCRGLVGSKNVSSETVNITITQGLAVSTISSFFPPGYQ

For human WT IgG1 (antibody), which Kd is on record?
Its Kd is 240 nM.
